Reference: article PMC10786891, “Massively parallel profiling of RNA-targeting CRISPR-Cas13d”

T1: EsCas13d, nuclease-dead (Eubacterium siraeum, UniProt B0MS50, R295A;H300A;R849A;H854A)
T1 sequence: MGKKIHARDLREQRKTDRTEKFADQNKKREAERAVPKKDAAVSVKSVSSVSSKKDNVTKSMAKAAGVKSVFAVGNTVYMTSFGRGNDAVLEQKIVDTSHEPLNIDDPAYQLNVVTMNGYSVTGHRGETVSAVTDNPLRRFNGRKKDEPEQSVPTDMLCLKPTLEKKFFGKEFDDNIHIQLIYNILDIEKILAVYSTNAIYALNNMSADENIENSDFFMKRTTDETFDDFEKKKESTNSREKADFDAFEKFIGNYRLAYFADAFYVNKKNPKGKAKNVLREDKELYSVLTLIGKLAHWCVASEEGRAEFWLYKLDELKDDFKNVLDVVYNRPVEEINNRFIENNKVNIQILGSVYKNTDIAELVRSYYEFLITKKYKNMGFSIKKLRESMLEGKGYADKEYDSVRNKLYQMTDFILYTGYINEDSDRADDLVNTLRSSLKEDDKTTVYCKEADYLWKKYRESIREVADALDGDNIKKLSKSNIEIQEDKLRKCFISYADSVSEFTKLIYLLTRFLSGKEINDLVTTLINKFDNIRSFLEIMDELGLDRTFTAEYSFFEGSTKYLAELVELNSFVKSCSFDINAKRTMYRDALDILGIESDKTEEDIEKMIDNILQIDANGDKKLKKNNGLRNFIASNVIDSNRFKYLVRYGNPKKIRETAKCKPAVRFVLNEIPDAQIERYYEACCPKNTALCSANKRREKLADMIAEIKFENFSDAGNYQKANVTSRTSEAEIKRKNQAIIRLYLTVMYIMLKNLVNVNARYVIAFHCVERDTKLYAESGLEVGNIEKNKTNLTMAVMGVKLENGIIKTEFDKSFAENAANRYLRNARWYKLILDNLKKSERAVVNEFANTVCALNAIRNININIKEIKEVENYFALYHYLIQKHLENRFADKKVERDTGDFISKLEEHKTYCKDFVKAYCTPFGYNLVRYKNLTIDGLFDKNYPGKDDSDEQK


Molecular target: T1, EsCas13d, nuclease-dead
Experiment: crRNA (strand 1, pre-loaded); Mg2+; 40 mM Tris-HCl pH 7.5, 150 mM NaCl, 6 mM MgCl2, 1 mM DTT, 0.1% Tween-20, 0.2 mg/ml BSA; 25 C; 10 min per concentration, then washed
Conditions: tags: His6-TwinStrep-SUMO cleaved; N-terminal SNAP kept (SNAP-Surface 488); label: 3' end held by stalled T7 RNA polymerase

| Binder | Kd [nM] |
| --- | --- |
| target 1 MT 5'PFS CAG 3'PFS AGU (mixed) RNA 1: CACCCGUGCAAAAAUGCAGGGGUCUAAAACUGAGCGGAUAACCUCUCUAUGG RNA 2: GGGAAUGGAUCCACAUCUACGAAUUCCAGCCAUAGAGAGGUUAUCCGCUCAAGUAGAUCGGAAGAGCACACGU | 57 ± 22.5 |
| target 1 MT 5'PFS UCA 3'PFS AGA (mixed) RNA 1: CACCCGUGCAAAAAUGCAGGGGUCUAAAACUGAGCGGAUAACCUCUCUAUGG RNA 2: GGGAAUGGAUCCACAUCUACGAAUUCUCACCAUAGAGAGGUUAUCCGCUCAAGAAGAUCGGAAGAGCACACGU | 20.5 ± 8.5 |
| target 1 MT 5'PFS CUA 3'PFS ACG (mixed) RNA 1: CACCCGUGCAAAAAUGCAGGGGUCUAAAACUGAGCGGAUAACCUCUCUAUGG RNA 2: GGGAAUGGAUCCACAUCUACGAAUUCCUACCAUAGAGAGGUUAUCCGCUCAACGAGAUCGGAAGAGCACACGU | 6.05 ± 1.8 |
| target 1 MT 5'PFS UUG 3'PFS UUA (mixed) RNA 1: CACCCGUGCAAAAAUGCAGGGGUCUAAAACUGAGCGGAUAACCUCUCUAUGG RNA 2: GGGAAUGGAUCCACAUCUACGAAUUCUUGCCAUAGAGAGGUUAUCCGCUCAUUAAGAUCGGAAGAGCACACGU | 20.1 ± 3.2 |
| target 1 MT 5'PFS UCA 3'PFS AGG (mixed) RNA 1: CACCCGUGCAAAAAUGCAGGGGUCUAAAACUGAGCGGAUAACCUCUCUAUGG RNA 2: GGGAAUGGAUCCACAUCUACGAAUUCUCACCAUAGAGAGGUUAUCCGCUCAAGGAGAUCGGAAGAGCACACGU | ~100 |
| target 1 MT 5'PFS GCG 3'PFS AUU (mixed) RNA 1: CACCCGUGCAAAAAUGCAGGGGUCUAAAACUGAGCGGAUAACCUCUCUAUGG RNA 2: GGGAAUGGAUCCACAUCUACGAAUUCGCGCCAUAGAGAGGUUAUCCGCUCAAUUAGAUCGGAAGAGCACACGU | 20 ± 7.5 |
| target 1 MT 5'PFS CUA 3'PFS ACU (mixed) RNA 1: CACCCGUGCAAAAAUGCAGGGGUCUAAAACUGAGCGGAUAACCUCUCUAUGG RNA 2: GGGAAUGGAUCCACAUCUACGAAUUCCUACCAUAGAGAGGUUAUCCGCUCAACUAGAUCGGAAGAGCACACGU | 4.95 ± 1 |
| target 1 MT 5'PFS UCA 3'PFS AGU (mixed) RNA 1: CACCCGUGCAAAAAUGCAGGGGUCUAAAACUGAGCGGAUAACCUCUCUAUGG RNA 2: GGGAAUGGAUCCACAUCUACGAAUUCUCACCAUAGAGAGGUUAUCCGCUCAAGUAGAUCGGAAGAGCACACGU | 24.6 ± 5.5 |
| target 1 insA 3' of 21,insC 3' of 13 (mixed) RNA 1: CACCCGUGCAAAAAUGCAGGGGUCUAAAACUGAGCGGAUAACCUCUCUAUGG RNA 2: GGGAAUGGAUCCACAUCUACGAAUUCGUACCAAUAGAGAGCGUUAUCCGCUCACCGAGAUCGGAAGAGCACACGU | 32 ± 4 |
| target 1 MT 5'PFS UCA 3'PFS CGG (mixed) RNA 1: CACCCGUGCAAAAAUGCAGGGGUCUAAAACUGAGCGGAUAACCUCUCUAUGG RNA 2: GGGAAUGGAUCCACAUCUACGAAUUCUCACCAUAGAGAGGUUAUCCGCUCACGGAGAUCGGAAGAGCACACGU | 52.5 ± 25 |
| target 1 MT 5'PFS AGC 3'PFS CUA (mixed) RNA 1: CACCCGUGCAAAAAUGCAGGGGUCUAAAACUGAGCGGAUAACCUCUCUAUGG RNA 2: GGGAAUGGAUCCACAUCUACGAAUUCAGCCCAUAGAGAGGUUAUCCGCUCACUAAGAUCGGAAGAGCACACGU | 13.9 ± 4.8 |
| target 1 MT 5'PFS UCA 3'PFS CGC (mixed) RNA 1: CACCCGUGCAAAAAUGCAGGGGUCUAAAACUGAGCGGAUAACCUCUCUAUGG RNA 2: GGGAAUGGAUCCACAUCUACGAAUUCUCACCAUAGAGAGGUUAUCCGCUCACGCAGAUCGGAAGAGCACACGU | 10.8 ± 3.85 |
| target 1 MT 5'PFS GCG 3'PFS AUA (mixed) RNA 1: CACCCGUGCAAAAAUGCAGGGGUCUAAAACUGAGCGGAUAACCUCUCUAUGG RNA 2: GGGAAUGGAUCCACAUCUACGAAUUCGCGCCAUAGAGAGGUUAUCCGCUCAAUAAGAUCGGAAGAGCACACGU | 16.2 ± 2.5 |
| target 1 MT 5'PFS CUA 3'PFS ACC (mixed) RNA 1: CACCCGUGCAAAAAUGCAGGGGUCUAAAACUGAGCGGAUAACCUCUCUAUGG RNA 2: GGGAAUGGAUCCACAUCUACGAAUUCCUACCAUAGAGAGGUUAUCCGCUCAACCAGAUCGGAAGAGCACACGU | 5 ± 1.85 |
| target 1 MT 5'PFS AAC 3'PFS UUG (mixed) RNA 1: CACCCGUGCAAAAAUGCAGGGGUCUAAAACUGAGCGGAUAACCUCUCUAUGG RNA 2: GGGAAUGGAUCCACAUCUACGAAUUCAACCCAUAGAGAGGUUAUCCGCUCAUUGAGAUCGGAAGAGCACACGU | 15.3 ± 3.3 |
| target 1 MT 5'PFS UGC 3'PFS UAA (mixed) RNA 1: CACCCGUGCAAAAAUGCAGGGGUCUAAAACUGAGCGGAUAACCUCUCUAUGG RNA 2: GGGAAUGGAUCCACAUCUACGAAUUCUGCCCAUAGAGAGGUUAUCCGCUCAUAAAGAUCGGAAGAGCACACGU | 16 ± 4.5 |
| target 1 insC 3' of 11,insU 3' of 5 (mixed) RNA 1: CACCCGUGCAAAAAUGCAGGGGUCUAAAACUGAGCGGAUAACCUCUCUAUGG RNA 2: GGGAAUGGAUCCACAUCUACGAAUUCGUACCAUAGAGAGGUCUAUCCGUCUCACCGAGAUCGGAAGAGCACACGU | 15 ± 0.8 |
| target 1 MT 5'PFS UGC 3'PFS UAG (mixed) RNA 1: CACCCGUGCAAAAAUGCAGGGGUCUAAAACUGAGCGGAUAACCUCUCUAUGG RNA 2: GGGAAUGGAUCCACAUCUACGAAUUCUGCCCAUAGAGAGGUUAUCCGCUCAUAGAGAUCGGAAGAGCACACGU | 15.9 ± 4.1 |
| target 1 MT 5'PFS CCU 3'PFS CCG (mixed) RNA 1: CACCCGUGCAAAAAUGCAGGGGUCUAAAACUGAGCGGAUAACCUCUCUAUGG RNA 2: GGGAAUGGAUCCACAUCUACGAAUUCCCUCCAUAGAGAGGUUAUCCGCUCACCGAGAUCGGAAGAGCACACGU | 16.5 ± 7.5 |
| target 1 MT 5'PFS CCC 3'PFS CUA (mixed) RNA 1: CACCCGUGCAAAAAUGCAGGGGUCUAAAACUGAGCGGAUAACCUCUCUAUGG RNA 2: GGGAAUGGAUCCACAUCUACGAAUUCCCCCCAUAGAGAGGUUAUCCGCUCACUAAGAUCGGAAGAGCACACGU | ~17 |
| target 1 MT 5'PFS AGC 3'PFS CUU (mixed) RNA 1: CACCCGUGCAAAAAUGCAGGGGUCUAAAACUGAGCGGAUAACCUCUCUAUGG RNA 2: GGGAAUGGAUCCACAUCUACGAAUUCAGCCCAUAGAGAGGUUAUCCGCUCACUUAGAUCGGAAGAGCACACGU | 9.35 ± 3.2 |
| target 1 MT 5'PFS UCG 3'PFS UCU (mixed) RNA 1: CACCCGUGCAAAAAUGCAGGGGUCUAAAACUGAGCGGAUAACCUCUCUAUGG RNA 2: GGGAAUGGAUCCACAUCUACGAAUUCUCGCCAUAGAGAGGUUAUCCGCUCAUCUAGAUCGGAAGAGCACACGU | 36 ± 10.5 |
| target 1 MT 5'PFS CUA 3'PFS ACA (mixed) RNA 1: CACCCGUGCAAAAAUGCAGGGGUCUAAAACUGAGCGGAUAACCUCUCUAUGG RNA 2: GGGAAUGGAUCCACAUCUACGAAUUCCUACCAUAGAGAGGUUAUCCGCUCAACAAGAUCGGAAGAGCACACGU | 9.65 ± 2.5 |
| target 1 MT 5'PFS CCC 3'PFS CUG (mixed) RNA 1: CACCCGUGCAAAAAUGCAGGGGUCUAAAACUGAGCGGAUAACCUCUCUAUGG RNA 2: GGGAAUGGAUCCACAUCUACGAAUUCCCCCCAUAGAGAGGUUAUCCGCUCACUGAGAUCGGAAGAGCACACGU | ~9.5 |
